{
  "source": "patent US20130022590A1",
  "about": "“Compositions Comprising Zinc Finger Domains and Uses Therefor” (priority 2009, published 2013)",
  "molecules": {"B1": {"name": "F12: F1 and F2 domains, residues 1-95 of human ZRANB2 (protein, UniProt O95218 1-95, looked up, fragment)", "chain": "MSTKNFRVSDGDWICPDKKCGNVNFARRTSCNRCGREKTTEAKMMKAGGTEIGKTLAEKSRGLFSANDWQCKTCSNVNWARRSECNMCNTPKYAK", "modifications": "F1-F2 zinc fingers GST fusion in some uses", "notes": "F1 and F2 domains, residues 1-95 of human ZRANB2"}},
  "key": {"[1]": {"system": "5′ splice site from exon 3 of the Tra2β minigene (CUCUGAAUCUAGGUAAGAAAG)", "test": "Surface plasmon resonance competition binding", "conditions": "750 nM F12, 1 molar equivalent competitor RNA; compared with exons 1 and 2", "description": "Competition binding experiments were carried out by flowing a solution of F12 over a streptavidin chip coated with a biotinylated ssRNA oligonucleotide (containing the sequence AGGUAA) in the presence of an unlabeled competitor oligonucleotide.\nBinding experiments were performed in triplicate at 25° C. on a BIACORE 3000 (Biacore). A 5′ biotin-labeled RNA oligonucleotide containing the 5′ splice site from exon 3 of the Tra2β minigene ([…]; SEQ ID NO: 29) was purified by size exclusion chromatography (Superdex 75), and unlabeled competitor oligonucleotides i.e., GCGAGCGGUACGUAGA from exon 1 (SEQ ID NO: 30), AGGAAUAAGUGAAGCUG from exon 2 (SEQ ID NO: 31), and […] from exon 3 (SEQ ID NO: 32) were used without further purification. Protein and RNA samples were dialysed into 10 mM sodium phosphate (pH 7.2), 50 mM NaCl, 1 mM DTT, and 0.005% NP20 and filtered. The biotinylated RNA was heated to 65° C. for 5 min, cooled on ice, and then immobilized onto a streptavidin-coated sensor chip to a total of approximately 160 relative units. Solutions of 750 nM F12 in the presence of 1 molar equivalent of each competitor RNA were injected in random order over the sensor chip (at a flow rate of 20 μL/min for 120 sec) and allowed to undergo a 120-sec dissociation time; a further 300-sec interval was allowed between injections. Data were analyzed by using BIA Evaluation software (Biacore). […]"}, "[2]": {"system": "ssRNA containing two AGGUAA sites (AGGUAAAGGUAA, SEQ ID NO: 26)", "test": "Fluorescence anisotropy titration, double-site ssRNA", "format": "binding", "description": "Fluorescence Anisotropy titrations e.g., as shown in FIGS. 1D-F, 8 and 35, were carried out using standard protocols. In brief, 5′-Fluorescein-labeled RNA oligonucleotides were quantified by A260, correcting for fluorescein absorbance by using A493. For single-site experiments, the sequence GCAACCAGGUAAAGUCU (SEQ ID NO: 28), or single base mutants thereof, was used. For double-site experiments, two AGGUAA sites were separated by different length sequences as indicated, and the total oligonucleotide lengths were kept constant by the symmetrical addition of adenines to each end. The anisotropy titrations were performed with a starting RNA concentration of 50 nM in a buffer comprising either 10 mM Tris (pH 8.0), 50 mM KCl, 5 mM MgCl2, 0.05 mg/mL heparin, and 1 mM DTT (for GST fusion constructs) or 10 mM Mops (pH 7.3), 50 mM NaCl, 0.05 mg/mL heparin, and 1 mM DTT (for ZRANB2-F12). RNasin (Promega) was also added to the protein solution to a concentration of 2 units/μL. Protein was titrated into this starting solution and anisotropy values measured on a Cary Eclipse fluorescence spectrophotometer fitted with manual polarizer and long-pass filters set to 475 and 515 nm for excitation and emission, respectively. Excitation and emission wavelengths were set at 495 and 520 nm, respectively (10-nm slits) and the temperature was maintained at 25° C. by using a block temperature controller. Association constants were determined by nonlinear least squares regression analysis using a 1:1 binding model.\nThe importance of the spacing between AGGUAA motifs was assessed by measuring binding of F12 to double sites that were separated by −1 to 8 nt (where −1 denotes the sequence AGGUAAGGUAA SEQ ID NO: 33; FIG. 1E, lanes 5-10)."}, "[3]": {"system": "ssRNA pool containing a randomized 25-nt sequence", "test": "SELEX in vitro site selection", "format": "binding", "conditions": "up to 13 rounds of selection", "description": "A ZRANB2-F12 SELEX protocol was developed, based on that used by Sakashita E. and Sakamoto H.1994 Acids Res 22:4082-4086. In brief, a library of ssRNA sequences was incubated with GST-F12 on glutathione Sepharose beads, and after washing protein—RNA complexes were eluted with glutathione and the selected RNA was reverse-transcribed and amplified by PCR. Sequencing of selected sequences was carried out after 7, 9, and 13 rounds of selection.\nAn oligonucleotide harbouring a 25-nucleoride (nt) random sequence surrounded by 2 primer binding sites with an estimated complexity of 1.2×10^12 (sampling complete sequence space for 20-nt sequences) was amplified by 10 rounds of PCR as previously described in Sakashita E., and Sakamoto H.1994 Nucleic Acids Res 22: 4082-4086, then purified by using a QIAquick gel extraction kit (e.g., QIAGEN) according to manufacturer's instructions. RNA was transcribed from 13 pmol of dsDNA template, then extracted with phenol/chloroform and ethanol-precipitated according to established methods in the art. The RNA pellet was resuspended in water […], and unincorporated nucleotides were removed by Sephadex G-25 Quick Spin columns (Roche). RNA was quantified by absorbance at 260 nm.\nBinding reactions were carried out in SELEX buffer [10 mM Mops (pH 7.0), 50 mM KCl, 5 mM MgCl2, 5% glycerol, 1 mM DTT, 0.1% Triton, […], Complete protease inhibitor]. […]"}, "[4]": {"system": "17-nt RNA oligonucleotide containing a single AGGUAA motif", "test": "Gel shift assay of F12 with 17-nt oligonucleotide", "format": "binding", "description": "Gel Shift assays e.g., FIGS. 1B, 32A, were carried out using standard protocols. In brief, oligonucleotides were 5′ end-labelled with T4 polynucleotide kinase and annealed. Binding reactions were set up in a volume of 30 μL and contained a constant concentration of ^32P-labeled probe (0.1 pmol) and increasing concentrations of F12, in a buffer consisting of 10 mM Mops (pH 7.2), 50 mM KCl, 5 mM MgCl2, 1 mM DTT, 0.03 mg/mL heparin, and 5% glycerol. Binding reactions were set up on ice and incubated at 4° C. for 30 min, after which time 15 μL of each sample was loaded onto a prerun 8% native polyacrylamide gel made up in 0.5× Tris-borate buffer, and electrophoresed (250V, 1 h, 4° C.). The oligonucleotide sequence used for gel shift experiments was GCAACCAGGUAAAGUCU (SEQ ID NO: 28); the site was mutated by changing the central GGU to CUG.\nTo determine whether the AGGUAA motif was sufficient for binding, the binding of the double finger construct F12 to a 17-nt RNA oligonucleotide containing a single AGGUAA motif was tested as described in Section 1.4 above with dsDNA, ssDNA, and dsRNA also tested as controls."}},
  "data": [
    {"molecule": "B1", "values": [
      {"measurement": "reduction in binding to the chip by competitor 5′ splice site oligonucleotide of exon 3", "setting": "[1]", "value": "largest reduction in binding"},
      {"measurement": "effect on binding of scrambling both sites", "setting": "[2]; FIG. 1E, lane 3", "value": "effectively eliminated binding"},
      {"measurement": "affinity (association constant) for AGGUAAAGGUAA", "setting": "[2]; FIG. 1E, lane 6", "value": "1.9e+07", "unit": "M⁻¹"},
      {"measurement": "affinity for double site with cytosine-rich spacer versus penta-adenine spacer", "setting": "[2]; FIG. 1E, lanes 10 and 8", "value": "same affinity"},
      {"measurement": "affinity versus spacing between AGGUAA motifs", "setting": "[2]; double sites separated by −1 to 8 nt, adenines inserted", "value": "increased monotonically"},
      {"measurement": "effect on binding of randomizing one of the AGGUAA motifs", "setting": "[2]; sequence AGAAUGAGGUAA, FIG. 1E, lane 4", "value": "reduced the binding by a small, but reproducible, amount"},
      {"measurement": "consensus ssRNA sequence recognized", "setting": "[3]", "value": "AGGUAA(N1-8)AGGUAA"},
      {"measurement": "effect of mutation of the central GGU to CUG", "setting": "[4]", "value": "abrogated the interaction"},
      {"measurement": "nucleic acid type selectivity of the interaction", "setting": "[4]; dsDNA, ssDNA, dsRNA tested as controls", "value": "strongly selective for ssRNA"}
    ]}
  ]
}
